Measured values reported in the supplement of paper PMC9116672.
± gives the standard deviation of the averaged measurements or the uncertainty stated by the source.

Columns and labels:
[1] = duplex melting temperature (HRM, EvaGreen); higher = more stable duplex
Outline: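 Complementary DNA strands (phosphodiester or phosphorothioate, Rp/Sp mixtures) were annealed 1:1 at 25 μM, then diluted to 1–20 μM duplex in NNE buffer (500 mM NaCl, pH 7.0) with 1× EvaGreen. A LightCycler96 read fluorescence (470/514 nm) while heating from 37°C to 97°C at 0.1°C/s. Melting temperature was the peak of the negative dF/dT curve from the instrument software. Four replicates were prepared; those lacking a clear peak were excluded and the rest averaged.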

[2] = duplex formation free energy ΔG50 (Van't Hoff fit of HRM Tm); higher = less stable duplex; conditions: temperature for dG: 50 °C, NaCl: 500 mM (unadjusted)
Outline: (§1)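 Four replicate samples of each duplex, annealed 1:1 from phosphodiester or phosphorothioate strands (the latter mixed Rp/Sp), were melted at 1–20 μM in 1× NNE buffer (500 mM NaCl, pH 7.0) with 1× EvaGreen, heating from 37 to 97°C at 0.1°C/s on a LightCycler96. Tm is the peak of -dF/dT, and a linear Van't Hoff regression of 1/Tm against ln(CT/4) gives enthalpy, entropy and extrapolated free energy, with no salt adjustment and errors given as fit standard deviations. The free energy extrapolation is to 50°C.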

[3] = duplex formation enthalpy ΔH (Van't Hoff fit of HRM Tm); higher = less exothermic duplex formation; conditions: temperature for dG: 50 °C, NaCl: 500 mM (unadjusted)
Outline: as §1

[4] = duplex formation entropy ΔS (Van't Hoff fit of HRM Tm); higher = smaller entropy loss on duplex formation; conditions: temperature for dG: 50 °C, NaCl: 500 mM (unadjusted)
Outline: as §1

[5] = duplex concentration 1 µM, backbone: PO-PO (both strands phosphodiester DNA)
[6] = duplex concentration 1 µM, backbone: PS-PO (listed strand fully phosphorothioate, complement phosphodiester)
[7] = duplex concentration 1 µM, backbone: PS-PS (both strands fully phosphorothioate)
[8] = duplex concentration 2.5 µM, backbone: PO-PO (both strands phosphodiester DNA)
[9] = duplex concentration 2.5 µM, backbone: PS-PO (listed strand fully phosphorothioate, complement phosphodiester)
[10] = duplex concentration 2.5 µM, backbone: PS-PS (both strands fully phosphorothioate)
[11] = duplex concentration 5 µM, backbone: PO-PO (both strands phosphodiester DNA)
[12] = duplex concentration 5 µM, backbone: PS-PO (listed strand fully phosphorothioate, complement phosphodiester)
[13] = duplex concentration 5 µM, backbone: PS-PS (both strands fully phosphorothioate)
[14] = duplex concentration 7.5 µM, backbone: PO-PO (both strands phosphodiester DNA)
[15] = duplex concentration 7.5 µM, backbone: PS-PO (listed strand fully phosphorothioate, complement phosphodiester)
[16] = duplex concentration 7.5 µM, backbone: PS-PS (both strands fully phosphorothioate)
[17] = duplex concentration 10 µM, backbone: PO-PO (both strands phosphodiester DNA)
[18] = duplex concentration 10 µM, backbone: PS-PO (listed strand fully phosphorothioate, complement phosphodiester)
[19] = duplex concentration 10 µM, backbone: PS-PS (both strands fully phosphorothioate)
[20] = duplex concentration 15 µM, backbone: PO-PO (both strands phosphodiester DNA)
[21] = duplex concentration 15 µM, backbone: PS-PO (listed strand fully phosphorothioate, complement phosphodiester)
[22] = duplex concentration 15 µM, backbone: PS-PS (both strands fully phosphorothioate)
[23] = duplex concentration 20 µM, backbone: PO-PO (both strands phosphodiester DNA)
[24] = duplex concentration 20 µM, backbone: PS-PO (listed strand fully phosphorothioate, complement phosphodiester)
[25] = duplex concentration 20 µM, backbone: PS-PS (both strands fully phosphorothioate)
[26] = backbone: PO-PO (both strands phosphodiester DNA)
[27] = backbone: PS-PO (listed strand fully phosphorothioate, complement phosphodiester)
[28] = backbone: PS-PS (both strands fully phosphorothioate)

Sequence | duplex melting temperature [1, 5] [°C] | duplex melting temperature [1, 6] [°C] | duplex melting temperature [1, 7] [°C] | duplex melting temperature [1, 8] [°C] | duplex melting temperature [1, 9] [°C] | duplex melting temperature [1, 10] [°C] | duplex melting temperature [1, 11] [°C] | duplex melting temperature [1, 12] [°C] | duplex melting temperature [1, 13] [°C] | duplex melting temperature [1, 14] [°C] | duplex melting temperature [1, 15] [°C] | duplex melting temperature [1, 16] [°C] | duplex melting temperature [1, 17] [°C] | duplex melting temperature [1, 18] [°C] | duplex melting temperature [1, 19] [°C] | duplex melting temperature [1, 20] [°C] | duplex melting temperature [1, 21] [°C] | duplex melting temperature [1, 22] [°C] | duplex melting temperature [1, 23] [°C] | duplex melting temperature [1, 24] [°C] | duplex melting temperature [1, 25] [°C] | duplex formation free energy ΔG50 [2, 26] [kcal/mol] | duplex formation free energy ΔG50 [2, 27] [kcal/mol] | duplex formation free energy ΔG50 [2, 28] [kcal/mol] | duplex formation enthalpy ΔH [3, 26] [kcal/mol] | duplex formation enthalpy ΔH [3, 27] [kcal/mol] | duplex formation enthalpy ΔH [3, 28] [kcal/mol] | duplex formation entropy ΔS [4, 26] [cal/mol/K] | duplex formation entropy ΔS [4, 27] [cal/mol/K] | duplex formation entropy ΔS [4, 28] [cal/mol/K]
CTCAGAGTAGAGCCGA | 63.68 ± 0.069 | 57.92 ± 0.21 | 49.9 ± 1.1 | 65.7 ± 0.74 | 60.75 ± 0.31 | 53.32 ± 0.14 | 68.22 ± 0.15 | 63.08 ± 0.2 | 55.65 ± 0.051 | 69.47 ± 0.26 | 64.34 ± 0.11 | 56.75 ± 0.12 | 70.41 ± 0.2 | 65.17 ± 0.17 | 57.39 ± 0.097 | 71.91 ± 0.23 | 66.49 ± 0.15 | 58.63 ± 0.12 | 72.85 ± 0.2 | 67.47 ± 0.082 | 59.42 ± 0.24 | -12.5 ± 0.13 | -11.45 ± 0.047 | -9.827 ± 0.057 | -70.2 ± 2.2 | -70.4 ± 1.1 | -68.5 ± 2.8 | -179 ± 6.5 | -183 ± 3.4 | -182 ± 8.6
AGCTGAGCCTGCCGCC |  | 65.9 ± 0.78 | 61.14 ± 0.19 | 77.27 ± 0.16 | 69.3 ± 0.33 | 64.02 ± 0.13 | 78.56 ± 0.24 | 71.58 ± 0.18 | 66.05 ± 0.17 | 79.697 ± 0.042 | 72.92 ± 0.22 | 67.37 ± 0.12 | 80.57 ± 0.19 | 73.99 ± 0.21 | 68.22 ± 0.11 | 81.65 ± 0.17 | 75.27 ± 0.28 | 69.27 ± 0.11 | 82.38 ± 0.13 | 76.21 ± 0.3 | 70.31 ± 0.28 | -16.8 ± 0.39 | -13.04 ± 0.1 | -12.29 ± 0.078 | -98.2 ± 4.6 | -69.1 ± 1.6 | -75.3 ± 1.6 | -252 ± 13 | -174 ± 4.5 | -195 ± 4.6
AATGAGGAGTGAAATGG | 61.5 | 54.3 ± 0.28 | 45.74 ± 0.18 | 62.9 ± 0.89 | 57.29 ± 0.22 | 48.55 ± 0.12 | 65.1 ± 0.71 | 59.317 ± 0.05 | 50.54 ± 0.062 | 66.06 ± 0.59 | 60.42 ± 0.089 | 51.494 ± 0.05 | 67.14 ± 0.48 | 61.271 ± 0.056 | 52.36 ± 0.1 | 68.46 ± 0.62 | 62.43 ± 0.043 | 53.52 ± 0.054 | 69.63 ± 0.3 | 63.28 ± 0.098 | 54.406 ± 0.047 | -12 ± 0.16 | -10.83 ± 0.037 | -8.817 ± 0.012 | -73.5 ± 3.3 | -75.7 ± 1.2 | -72.8 ± 1.3 | -190 ± 9.7 | -201 ± 3.6 | -198 ± 4
CTACCAGCGGCGCCGTT |  | 68.2 ± 0.97 | 63.52 ± 0.26 | 78.66 ± 0.28 | 71.69 ± 0.5 | 66.46 ± 0.23 | 80.52 ± 0.35 | 74.62 ± 0.28 | 68.88 ± 0.19 | 81.81 ± 0.23 | 75.97 ± 0.31 | 70.02 ± 0.24 | 82.55 ± 0.18 | 76.92 ± 0.17 | 71 ± 0.18 | 83.52 ± 0.2 | 78.15 ± 0.26 | 72.23 ± 0.12 | 84.24 ± 0.2 | 79.05 ± 0.47 | 73.06 ± 0.32 | -16.7 ± 0.4 | -13.3 ± 0.16 | -12.69 ± 0.1 | -92.6 ± 4.5 | -66.1 ± 2.3 | -72.5 ± 1.8 | -235 ± 13 | -163 ± 6.5 | -185 ± 5.4
AACGAATGTCAGCAATT | 62.43 ± 0.59 | 55.7 ± 0.6 | 47.1 ± 0.49 | 64.93 ± 0.41 | 58.37 ± 0.15 | 49.91 ± 0.19 | 66.97 ± 0.37 | 60.36 ± 0.23 | 52.27 ± 0.13 | 68.1 ± 0.45 | 61.59 ± 0.21 | 53.4 ± 0.093 | 69.1 ± 0.15 | 62.44 ± 0.15 | 54.261 ± 0.011 | 70.52 ± 0.15 | 63.69 ± 0.16 | 55.38 ± 0.048 | 71.52 ± 0.29 | 64.46 ± 0.11 | 56.34 ± 0.12 | -12.5 ± 0.15 | -11.05 ± 0.039 | -9.166 ± 0.023 | -74.4 ± 2.8 | -74.7 ± 1.1 | -68.5 ± 1.9 | -192 ± 8.3 | -197 ± 3.4 | -184 ± 5.7
TAGACGCGGCCTCTTTCC | 73.91 ± 0.44 | 67.6 |  | 74.76 ± 0.23 | 69 ± 0.71 |  | 76.52 ± 0.15 | 70.8 ± 0.46 |  | 77.7 ± 0.27 | 71.32 ± 0.62 | 66.47 ± 0.089 | 78.58 ± 0.21 | 72.01 ± 0.38 | 67.44 ± 0.059 | 79.83 ± 0.13 | 73.3 ± 0.19 | 68.13 ± 0.13 | 80.63 ± 0.22 | 73.84 ± 0.11 | 68.81 ± 0.13 | -16.4 ± 0.68 | -14.9 ± 0.32 | -13.4 ± 0.56 | -99.8 ± 8.6 | -103 ± 5.1 | -101 ± 11 | -258 ± 24 | -272 ± 15 | -272 ± 32
